The values below come from patent publication US20100081638A1 (KOREA RESEARCH INSTITUTE OF BIOSCIENCE AND BIOTECHNOLOGY, published 2010).

The target in the assay is T1, focal adhesion kinase (FAK) (UniProt Q05397 2-1052).
T1 construct: Endogenous protein in lysates of SNU449 cell lines
In words: physical association in SNU449 cell lysates with or without tiarellic acid (FIG. 10; method not described).

T1 sequence (Q05397 2-1052 limits assumed): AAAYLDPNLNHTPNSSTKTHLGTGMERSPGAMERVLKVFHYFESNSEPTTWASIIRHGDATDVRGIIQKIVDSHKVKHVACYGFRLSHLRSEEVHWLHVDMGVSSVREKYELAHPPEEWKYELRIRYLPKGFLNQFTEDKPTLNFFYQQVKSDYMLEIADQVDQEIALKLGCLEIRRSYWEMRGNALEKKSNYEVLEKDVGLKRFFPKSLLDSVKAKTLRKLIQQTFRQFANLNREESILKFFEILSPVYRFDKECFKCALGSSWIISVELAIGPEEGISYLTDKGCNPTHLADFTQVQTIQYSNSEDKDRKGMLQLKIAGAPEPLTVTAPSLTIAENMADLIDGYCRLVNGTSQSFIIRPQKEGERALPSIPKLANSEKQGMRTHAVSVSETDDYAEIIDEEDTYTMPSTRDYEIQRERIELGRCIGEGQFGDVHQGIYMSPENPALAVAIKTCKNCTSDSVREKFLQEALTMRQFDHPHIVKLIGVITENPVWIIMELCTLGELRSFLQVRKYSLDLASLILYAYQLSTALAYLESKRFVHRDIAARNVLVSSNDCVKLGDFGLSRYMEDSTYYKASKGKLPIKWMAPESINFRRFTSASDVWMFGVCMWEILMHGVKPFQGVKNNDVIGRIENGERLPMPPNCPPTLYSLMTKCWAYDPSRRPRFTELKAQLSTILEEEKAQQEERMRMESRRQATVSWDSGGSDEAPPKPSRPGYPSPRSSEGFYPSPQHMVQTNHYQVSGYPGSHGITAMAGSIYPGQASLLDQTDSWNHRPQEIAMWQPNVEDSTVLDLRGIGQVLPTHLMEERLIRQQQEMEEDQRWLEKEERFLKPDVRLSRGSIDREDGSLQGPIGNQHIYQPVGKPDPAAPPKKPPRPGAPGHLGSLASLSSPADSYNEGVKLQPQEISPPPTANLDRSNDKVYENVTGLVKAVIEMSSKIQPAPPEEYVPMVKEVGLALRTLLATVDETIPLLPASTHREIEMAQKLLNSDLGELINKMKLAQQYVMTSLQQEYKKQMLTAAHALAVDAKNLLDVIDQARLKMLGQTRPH

B1: p130Cas (other, UniProt P56945 1-870, looked up)
chain: MNHLNVLAKALYDNVAESPDELSFRKGDIMTVLEQDTQGLDGWWLCSLHGRQGIVPGNRLKILVGMYDKKPAGPGPGPPATPAQPQPGLHAPAPPASQYTPMLPNTYQPQPDSVYLVPTPSKAQQGLYQVPGPSPQFQSPPAKQTSTFSKQTPHHPFPSPATDLYQVPPGPGGPAQDIYQVPPSAGMGHDIYQVPPSMDTRSWEGTKPPAKVVVPTRVGQGYVYEAAQPEQDEYDIPRHLLAPGPQDIYDVPPVRGLLPSQYGQEVYDTPPMAVKGPNGRDPLLEVYDVPPSVEKGLPPSNHHAVYDVPPSVSKDVPDGPLLREETYDVPPAFAKAKPFDPARTPLVLAAPPPDSPPAEDVYDVPPPAPDLYDVPPGLRRPGPGTLYDVPRERVLPPEVADGGVVDSGVYAVPPPAEREAPAEGKRLSASSTGSTRSSQSASSLEVAGPGREPLELEVAVEALARLQQGVSATVAHLLDLAGSAGATGSWRSPSEPQEPLVQDLQAAVAAVQSAVHELLEFARSAVGNAAHTSDRALHAKLSRQLQKMEDVHQTLVAHGQALDAGRGGSGATLEDLDRLVACSRAVPEDAKQLASFLHGNASLLFRRTKATAPGPEGGGTLHPNPTDKTSSIQSRPLPSPPKFTSQDSPDGQYENSEGGWMEDYDYVHLQGKEEFEKTQKELLEKGSITRQGKSQLELQQLKQFERLEQEVSRPIDHDLANWTPAQPLAPGRTGGLGPSDRQLLLFYLEQCEANLTTLTNAVDAFFTAVATNQPPKIFVAHSKFVILSAHKLVFIGDTLSRQAKAADVRSQVTHYSNLLCDLLRGIVATTKAAALQYPSPSAAQDMVERVKELGHSTQQFRRVLGQLAAA
notes: Endogenous protein in lysates of SNU449 cell lines
With B1, the binding result is on record as “binds”.
